± gives the uncertainty stated by the source.
B1: POU domain, class 2, transcription factor 3, residues 186 to 260; numbered along this chain, Q9UKI9 (parent)
chain: SDLEELEKFAKTFKQRRIKLGFTQGDVGLAMGKLYGNDFSQTTISRFEALNLSFKNMCKLKPLLEKWLNDAESSP

Variants of: B1
Experiment: abundance fitness (aPCA) (normalised: wild type 0, dead -1); higher = more abundant; growth selection in yeast, the domain comes from the species named
Settings: Homo sapiens

Variant | abundance fitness
SDLEELEKFAKTFKQRRIKLGFTQGDVGLAMGKLYGNDFSQTTISRIEALNLSFKNMCKLKPLLEKWLNDAESSP [F47I] | -0.433 ± 0.11
SDLEELEKFAKTFKQRRIKLGFTQGDVGLAMGKLYGNDFSQTTISRGEALNLSFKNMCKLKPLLEKWLNDAESSP [F47G] | -0.925 ± 0.063
SDLEELEKFAKTFKQRRIKLGFTQGDVGLAMGKLYGNDFSQTTISRVEALNLSFKNMCKLKPLLEKWLNDAESSP [F47V] | -0.346 ± 0.037
SDLEELEKFAKTFKQRRIKLGFTQGDVGLAMGKLYGNDFSQTTISRYEALNLSFKNMCKLKPLLEKWLNDAESSP [F47Y] | -0.222 ± 0.066
SDLEELEKFAKTFKQRRIKLGFTQGDVGLAMGKLYGNDFSQTTISRNEALNLSFKNMCKLKPLLEKWLNDAESSP [F47N] | -0.932 ± 0.34
SDLEELEKFAKTFKQRRIKLGFTQGDVGLAMGKLYGNDFSQTTISRAEALNLSFKNMCKLKPLLEKWLNDAESSP [F47A] | -0.712 ± 0.069
SDLEELEKFAKTFKQRRIKLGFTQGDVGLAMGKLYGNDFSQTTISREEALNLSFKNMCKLKPLLEKWLNDAESSP [F47E] | -0.942 ± 0.13
SDLEELEKFAKTFKQRRIKLGFTQGDVGLAMGKLYGNDFSQTTISRMEALNLSFKNMCKLKPLLEKWLNDAESSP [F47M] | -0.279 ± 0.053
SDLEELEKFAKTFKQRRIKLGFTQGDVGLAMGKLYGNDFSQTTISRCEALNLSFKNMCKLKPLLEKWLNDAESSP [F47C] | -0.845 ± 0.14
SDLEELEKFAKTFKQRRIKLGFTQGDVGLAMGKLYGNDFSQTTISRTEALNLSFKNMCKLKPLLEKWLNDAESSP [F47T] | -0.812 ± 0.13
SDLEELEKFAKTFKQRRIKLGFTQGDVGLAMGKLYGNDFSQTTISRLEALNLSFKNMCKLKPLLEKWLNDAESSP [F47L] | -0.098 ± 0.037
SDLEELEKFAKTFKQRRIKLGFTQGDVGLAMGKLYGNDFSQTTISRWEALNLSFKNMCKLKPLLEKWLNDAESSP [F47W] | -0.27 ± 0.045
SDLEELEKFAKTFKQRRIKLGFTQGDVGLAMGKLYGNDFSQTTISRQEALNLSFKNMCKLKPLLEKWLNDAESSP [F47Q] | -1.22 ± 0.34
SDLEELEKFAKTFKQRRIKLGFTQGDVGLAMGKLYGNDFSQTTISRPEALNLSFKNMCKLKPLLEKWLNDAESSP [F47P] | -1.09 ± 0.25
SDLEELEKFAKTFKQRRIKLGFTQGDVGLAMGKLYGNDFSQTTISRSEALNLSFKNMCKLKPLLEKWLNDAESSP [F47S] | -0.915 ± 0.17
SDLEELEKFAKTFKQRRIKLGFTQGDVGLAMGKLYGNDFSQTTISRKEALNLSFKNMCKLKPLLEKWLNDAESSP [F47K] | -1.15 ± 0.28
SDLEELEKFAKTFKQRRIKLGFTQGDVGLAMGKLYGNDFSQTTISRDEALNLSFKNMCKLKPLLEKWLNDAESSP [F47D] | -0.985 ± 0.32
SDLEELEKFAKTFKQRRIKLGFTQGDVGLAMGKLYGNDFSQTTISRREALNLSFKNMCKLKPLLEKWLNDAESSP [F47R] | -1.08 ± 0.092
SDLEELEKFAKTFKQRRIKLGFTQGDVGLAMGKLYGNDFSQTTISRFKALNLSFKNMCKLKPLLEKWLNDAESSP [E48K] | -0.705 ± 0.081
SDLEELEKFAKTFKQRRIKLGFTQGDVGLAMGKLYGNDFSQTTISRFDALNLSFKNMCKLKPLLEKWLNDAESSP [E48D] | -1.11 ± 0.39
SDLEELEKFAKTFKQRRIKLGFTQGDVGLAMGKLYGNDFSQTTISRFHALNLSFKNMCKLKPLLEKWLNDAESSP [E48H] | -1.19 ± 0.25
SDLEELEKFAKTFKQRRIKLGFTQGDVGLAMGKLYGNDFSQTTISRFIALNLSFKNMCKLKPLLEKWLNDAESSP [E48I] | -1.02 ± 0.18
SDLEELEKFAKTFKQRRIKLGFTQGDVGLAMGKLYGNDFSQTTISRFGALNLSFKNMCKLKPLLEKWLNDAESSP [E48G] | -1.04 ± 0.14
SDLEELEKFAKTFKQRRIKLGFTQGDVGLAMGKLYGNDFSQTTISRFCALNLSFKNMCKLKPLLEKWLNDAESSP [E48C] | -0.871 ± 0.16
SDLEELEKFAKTFKQRRIKLGFTQGDVGLAMGKLYGNDFSQTTISRFFALNLSFKNMCKLKPLLEKWLNDAESSP [E48F] | -0.708 ± 0.12

Variant | abundance fitness
SDLEELEKFAKTFKQRRIKLGFTQGDVGLAMGKLYGNDFSQTTIIRFEALNLSFKNMCKLKPLLEKWLNDAESSP [S45I] | -0.125 ± 0.05
SDLEELEKFAKTFKQRRIKLGFTQGDVGLAMGKLYGNDFSQTTIGRFEALNLSFKNMCKLKPLLEKWLNDAESSP [S45G] | -0.036 ± 0.022
SDLEELEKFAKTFKQRRIKLGFTQGDVGLAMGKLYGNDFSQTTIWRFEALNLSFKNMCKLKPLLEKWLNDAESSP [S45W] | -0.138 ± 0.03
SDLEELEKFAKTFKQRRIKLGFTQGDVGLAMGKLYGNDFSQTTIRRFEALNLSFKNMCKLKPLLEKWLNDAESSP [S45R] | -0.024 ± 0.023
SDLEELEKFAKTFKQRRIKLGFTQGDVGLAMGKLYGNDFSQTTILRFEALNLSFKNMCKLKPLLEKWLNDAESSP [S45L] | -0.125 ± 0.026
SDLEELEKFAKTFKQRRIKLGFTQGDVGLAMGKLYGNDFSQTTITRFEALNLSFKNMCKLKPLLEKWLNDAESSP [S45T] | -0.036 ± 0.03
SDLEELEKFAKTFKQRRIKLGFTQGDVGLAMGKLYGNDFSQTTIVRFEALNLSFKNMCKLKPLLEKWLNDAESSP [S45V] | -0.077 ± 0.026
SDLEELEKFAKTFKQRRIKLGFTQGDVGLAMGKLYGNDFSQTTIARFEALNLSFKNMCKLKPLLEKWLNDAESSP [S45A] | 0.013 ± 0.025
SDLEELEKFAKTFKQRRIKLGFTQGDVGLAMGKLYGNDFSQTTINRFEALNLSFKNMCKLKPLLEKWLNDAESSP [S45N] | 0.004 ± 0.05
SDLEELEKFAKTFKQRRIKLGFTQGDVGLAMGKLYGNDFSQTTIPRFEALNLSFKNMCKLKPLLEKWLNDAESSP [S45P] | -0.04 ± 0.036
SDLEELEKFAKTFKQRRIKLGFTQGDVGLAMGKLYGNDFSQTTIFRFEALNLSFKNMCKLKPLLEKWLNDAESSP [S45F] | -0.253 ± 0.054
SDLEELEKFAKTFKQRRIKLGFTQGDVGLAMGKLYGNDFSQTTICRFEALNLSFKNMCKLKPLLEKWLNDAESSP [S45C] | 0.022 ± 0.038
SDLEELEKFAKTFKQRRIKLGFTQGDVGLAMGKLYGNDFSQTTIMRFEALNLSFKNMCKLKPLLEKWLNDAESSP [S45M] | -0.037 ± 0.035
SDLEELEKFAKTFKQRRIKLGFTQGDVGLAMGKLYGNDFSQTTIYRFEALNLSFKNMCKLKPLLEKWLNDAESSP [S45Y] | -0.099 ± 0.043
SDLEELEKFAKTFKQRRIKLGFTQGDVGLAMGKLYGNDFSQTTIHRFEALNLSFKNMCKLKPLLEKWLNDAESSP [S45H] | -0.097 ± 0.05
SDLEELEKFAKTFKQRRIKLGFTQGDVGLAMGKLYGNDFSQTTIDRFEALNLSFKNMCKLKPLLEKWLNDAESSP [S45D] | -0.048 ± 0.037
SDLEELEKFAKTFKQRRIKLGFTQGDVGLAMGKLYGNDFSQTTIKRFEALNLSFKNMCKLKPLLEKWLNDAESSP [S45K] | 0.021 ± 0.035
SDLEELEKFAKTFKQRRIKLGFTQGDVGLAMGKLYGNDFSQTTISGFEALNLSFKNMCKLKPLLEKWLNDAESSP [R46G] | -0.009 ± 0.024
SDLEELEKFAKTFKQRRIKLGFTQGDVGLAMGKLYGNDFSQTTISNFEALNLSFKNMCKLKPLLEKWLNDAESSP [R46N] | 0.011 ± 0.056
SDLEELEKFAKTFKQRRIKLGFTQGDVGLAMGKLYGNDFSQTTISSFEALNLSFKNMCKLKPLLEKWLNDAESSP [R46S] | -0.008 ± 0.035
SDLEELEKFAKTFKQRRIKLGFTQGDVGLAMGKLYGNDFSQTTISVFEALNLSFKNMCKLKPLLEKWLNDAESSP [R46V] | -0.542 ± 0.048
SDLEELEKFAKTFKQRRIKLGFTQGDVGLAMGKLYGNDFSQTTISHFEALNLSFKNMCKLKPLLEKWLNDAESSP [R46H] | -0.038 ± 0.053
SDLEELEKFAKTFKQRRIKLGFTQGDVGLAMGKLYGNDFSQTTISYFEALNLSFKNMCKLKPLLEKWLNDAESSP [R46Y] | -0.097 ± 0.096
SDLEELEKFAKTFKQRRIKLGFTQGDVGLAMGKLYGNDFSQTTISEFEALNLSFKNMCKLKPLLEKWLNDAESSP [R46E] | 0.035 ± 0.036
SDLEELEKFAKTFKQRRIKLGFTQGDVGLAMGKLYGNDFSQTTISIFEALNLSFKNMCKLKPLLEKWLNDAESSP [R46I] | -0.745 ± 0.26

Variant | abundance fitness
SDLEELEKFAKTFKQRRIKLGFTQGDVGLAMGKLYGNDFSQTTISWFEALNLSFKNMCKLKPLLEKWLNDAESSP [R46W] | -0.428 ± 0.043
SDLEELEKFAKTFKQRRIKLGFTQGDVGLAMGKLYGNDFSQTTISLFEALNLSFKNMCKLKPLLEKWLNDAESSP [R46L] | -0.05 ± 0.035
SDLEELEKFAKTFKQRRIKLGFTQGDVGLAMGKLYGNDFSQTTISTFEALNLSFKNMCKLKPLLEKWLNDAESSP [R46T] | -0.181 ± 0.047
SDLEELEKFAKTFKQRRIKLGFTQGDVGLAMGKLYGNDFSQTTISMFEALNLSFKNMCKLKPLLEKWLNDAESSP [R46M] | -0.001 ± 0.044
SDLEELEKFAKTFKQRRIKLGFTQGDVGLAMGKLYGNDFSQTTISDFEALNLSFKNMCKLKPLLEKWLNDAESSP [R46D] | 0.009 ± 0.058
SDLEELEKFAKTFKQRRIKLGFTQGDVGLAMGKLYGNDFSQTTISQFEALNLSFKNMCKLKPLLEKWLNDAESSP [R46Q] | 0.014 ± 0.049
SDLEELEKFAKTFKQRRIKLGFTQGDVGLAMGKLYGNDFSQTTISKFEALNLSFKNMCKLKPLLEKWLNDAESSP [R46K] | 0.052 ± 0.045
SDLEELEKFAKTFKQRRIKLGFTQGDVGLAMGKLYGNDFSQTTISAFEALNLSFKNMCKLKPLLEKWLNDAESSP [R46A] | 0.015 ± 0.037
SDLEELEKFAKTFKQRRIKLGFTQGDVGLAMGKLYGNDFSQTTISPFEALNLSFKNMCKLKPLLEKWLNDAESSP [R46P] | -0.986 ± 0.23
SDLEELEKFAKTFKQRRIKLGFTQGDVGLAMGKLYGNDFSQTTPSRFEALNLSFKNMCKLKPLLEKWLNDAESSP [I44P] | -0.919 ± 0.085
SDLEELEKFAKTFKQRRIKLGFTQGDVGLAMGKLYGNDFSQTTVSRFEALNLSFKNMCKLKPLLEKWLNDAESSP [I44V] | -0.045 ± 0.024
SDLEELEKFAKTFKQRRIKLGFTQGDVGLAMGKLYGNDFSQTTHSRFEALNLSFKNMCKLKPLLEKWLNDAESSP [I44H] | -1.02 ± 0.21
SDLEELEKFAKTFKQRRIKLGFTQGDVGLAMGKLYGNDFSQTTLSRFEALNLSFKNMCKLKPLLEKWLNDAESSP [I44L] | -0.149 ± 0.025
SDLEELEKFAKTFKQRRIKLGFTQGDVGLAMGKLYGNDFSQTTMSRFEALNLSFKNMCKLKPLLEKWLNDAESSP [I44M] | -0.377 ± 0.035
SDLEELEKFAKTFKQRRIKLGFTQGDVGLAMGKLYGNDFSQTTCSRFEALNLSFKNMCKLKPLLEKWLNDAESSP [I44C] | -0.538 ± 0.056
SDLEELEKFAKTFKQRRIKLGFTQGDVGLAMGKLYGNDFSQTTGSRFEALNLSFKNMCKLKPLLEKWLNDAESSP [I44G] | -1 ± 0.045
SDLEELEKFAKTFKQRRIKLGFTQGDVGLAMGKLYGNDFSQTTESRFEALNLSFKNMCKLKPLLEKWLNDAESSP [I44E] | -0.794 ± 0.049
SDLEELEKFAKTFKQRRIKLGFTQGDVGLAMGKLYGNDFSQTTQSRFEALNLSFKNMCKLKPLLEKWLNDAESSP [I44Q] | -0.985 ± 0.082
SDLEELEKFAKTFKQRRIKLGFTQGDVGLAMGKLYGNDFSQTTNSRFEALNLSFKNMCKLKPLLEKWLNDAESSP [I44N] | -1.1 ± 0.2
SDLEELEKFAKTFKQRRIKLGFTQGDVGLAMGKLYGNDFSQTTASRFEALNLSFKNMCKLKPLLEKWLNDAESSP [I44A] | -0.784 ± 0.048
SDLEELEKFAKTFKQRRIKLGFTQGDVGLAMGKLYGNDFSQTTYSRFEALNLSFKNMCKLKPLLEKWLNDAESSP [I44Y] | -0.569 ± 0.074
SDLEELEKFAKTFKQRRIKLGFTQGDVGLAMGKLYGNDFSQTTDSRFEALNLSFKNMCKLKPLLEKWLNDAESSP [I44D] | -1.03 ± 0.13
SDLEELEKFAKTFKQRRIKLGFTQGDVGLAMGKLYGNDFSQTTRSRFEALNLSFKNMCKLKPLLEKWLNDAESSP [I44R] | -0.86 ± 0.041

From the Human Domainome abundance scans (Beltran et al. 2025)
